Experimental data published in publication PMC2289905.
One block for each substance: values may come before it.

Legend:
[1] = target: mature TGFbeta1 secreted by COS-1 cells transfected with wild-type pre-pro-TGFbeta1 (simian); assay: nonreducing SDS-PAGE with immunoblot
[2] = target: beta 1-LAP deletion mutant L50-81 (simian); assay: nonreducing SDS-PAGE with immunoblot
[3] = target: beta 1-LAP deletion mutant L50-85 (simian); assay: nonreducing SDS-PAGE with immunoblot
[4] = target: beta 1-LAP deletion mutant L85-110 (simian); assay: nonreducing SDS-PAGE with immunoblot
[5] = target: radioiodinated mature transforming growth factor beta 1 (UniProt P01137); assay: cross-linking
[6] = target: beta 1-LAP deletion mutant L40-50 (simian); assay: nonreducing SDS-PAGE with immunoblot

radioiodinated mature transforming growth factor beta 1, sequence (P01137 279-390): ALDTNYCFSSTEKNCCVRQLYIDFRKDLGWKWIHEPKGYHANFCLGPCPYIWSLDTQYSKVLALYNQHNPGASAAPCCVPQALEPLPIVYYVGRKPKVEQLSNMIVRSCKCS
beta 1-latency-associated peptide (pro domain of TGFbeta1 expressed independently), wild type (domain or fragment), sequence (P09533 30-390): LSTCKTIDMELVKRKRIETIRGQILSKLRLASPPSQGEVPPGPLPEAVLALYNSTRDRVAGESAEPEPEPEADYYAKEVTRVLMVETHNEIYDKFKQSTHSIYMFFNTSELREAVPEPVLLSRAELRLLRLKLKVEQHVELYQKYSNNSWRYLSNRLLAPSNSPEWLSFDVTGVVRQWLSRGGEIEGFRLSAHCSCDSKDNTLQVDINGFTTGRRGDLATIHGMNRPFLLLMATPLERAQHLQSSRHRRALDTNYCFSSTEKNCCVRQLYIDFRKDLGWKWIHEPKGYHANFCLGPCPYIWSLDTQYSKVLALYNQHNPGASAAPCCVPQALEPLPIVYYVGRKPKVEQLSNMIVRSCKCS

Substance: mature TGFbeta1 secreted by COS-1 cells transfected with wild-type pre-pro-TGFbeta1 (ligand)
stoichiometry N [1]: 2

Substance: beta 1-LAP deletion mutant L85-110 (domain or fragment)
stoichiometry N [4]: 2
cross-linking (% of wild-type) (% of wild-type) [5]: 12

Substance: beta 1-LAP deletion mutant L40-50 (domain or fragment)
stoichiometry N [6]: 2
cross-linking (% of wild-type) (% of wild-type) [5]: 10

Substance: beta 1-latency-associated peptide (pro domain of TGFbeta1 expressed independently), wild type (domain or fragment)
cross-linking (% of wild-type) (% of wild-type) [5]: 100

The remaining lines, values ahead:

stoichiometry N [2]: 2
Substance: beta 1-LAP deletion mutant L50-81 (domain or fragment)

stoichiometry N [3]: 2
Substance: beta 1-LAP deletion mutant L50-85 (domain or fragment)
